From patent US8247376B2, “NGAL for reduction and amelioration of ischemic and nephrotoxic injuries” (The Trustees of Columbia University, priority 2004, dated 2012)

Experiment: NGAL trafficking after intraperitoneal or subcutaneous injection
Type: in vivo, mice
Source text: Recombinant human and mouse GST-NGAL were expressed in BL21 or XL1-Blue strains of E. coli (Stratagene) with additional ferric sulfate (50 Micro Molar, Sigma-Aldrich Co.). NGAL was isolated using Glutathione Sepharose 4B beads (Amersham Biosciences), eluted by thrombin cleavage (Sigma-Aldrich Co.; St. Louis, Mo.) and then further purified by gel filtration (Superdex75, SMART system, Amersham Biosciences) and examined by Coomassie gels (Biorad). BL-21 derived NGAL was loaded with iron free or iron saturated enterochelin, a siderophore (EMC Microcollections) using a 5 fold molar excess. Unbound siderophore (0.7 KD) was removed by washing (Microcon YM-10) with PBS. To produce ^55Fe or gallium (Ga) loaded NGAL we incubated the iron-free enterochelin NGAL complex with equimolar ^55Fe (18mCi) or Ga in NaCl (150 mM) Hepes (20 mM; pH 7.4) and the complex was washed 3 times (10K filter). Iodobeads (Pierce) were used to label NGAL with ^125I and unincorporated ^125I was removed by gel filtration (PD-10 column) followed by extensive dialysis (7 kDa cut off membrane, Pierce) against PBS. Alexa-568 and fluorescein isothiocyanate (Molecular Probes) was coupled to NGAL, according to the manufacturer, and then extensively dialyzed. Protein concentration was determined by Coomassie gels in comparison with bovine serum albumin standard.
To detect delivery of NGAL to the kidney rNGAL (10 or 100 μg), Alexa 568-NGAL (100 μg), ^125I-NGAL ([…], 2×10^6 cpm), or ^55Fe loaded enterochelin-NGAL (10 μg, 1×10^6 cpm) was injected into the peritoneum and blood, urine, kidney and liver samples were obtained. NGAL was detected by immunoblot. Alexa-568 NGAL was detected by confocal microscopy (LSM Meta Detector) and NGAL mediated iron trafficking was detected by scintillation counter and by light microscopic radioautography of Epon embedded kidneys. Slides were exposed to emulsion (Polyscience) for 1 week and then developed with Microdol and counterstained with Toluidine blue. To detect lysosomes in the proximal tubule, mice were injected with Fluorescein Dextran (46 kD; 0.5 mg; Sigma) 24 hours before Alexa 568 NGAL injections. LAMP1 (Santa Cruz) was detected in cryostat sections of 4% paraformaldehyde fixed kidneys.

B1: NGAL: Purified endotoxin-free recombinant NGAL expressed as GST fusion protein in bacteria, thrombin cleaved (protein, UniProt P80188 21-198, looked up)
Neutrophil …: QDSTSDLIPAPPLSKVPLQQNFQDNQFQGKWYVVGLAGNAILREDKDPQKMYATIYELKEDKSYNVTSVLFRKKKCDYWIRTFVPGCQPGEFTLGNIKSYPGLTSYLVRVVSTNYNQHAMVFFKKVSQNREYFKITLYGRTKELTSELKENFIRFSKSLGLPENHIVFPVPIDQCIDG
time to appearance of NGAL in the urine (injection of 100 μg exogenous NGAL): ≤ 10 min | injected NGAL recovered in the urine in the first hour (mouse, in vivo): 0.1-0.2%
